Measured values reported in US10400249B2, “HPPD variants and methods of use” (priority 2014, dated 2019).

Key:
[1] = tested on: Pseudomonas fluorescens HPPD protein; assay: OD assay: HPPD activity and pI50 from HPP remaining after derivatisation with DNP; type: biochemical; conditions: for Activity DeltaE/24 min μg Protein: HPPD enzyme activity of the clone; for tolerance (pI50) Cmpd. 2: inhibitor Cmpd. 2; for tolerance (pI50) DKN: inhibitor diketonitrile (DKN), negative log of molar concentration; for tolerance (pI50) MST: inhibitor mesotrione (MST); for tolerance (pI50) TBT: inhibitor tembotrione (TBT)
Protocol: (§1) HPPD proteins were produced and purified as described in WO2011/076882. The activity of HPPD proteins in absence or presence of HPPD inhibitors was determined using either the so called OD assay or the HGD assay.
(§2) • a) The OD assay: The HPPD activity was determined colourimetrically by measuring the amount of HPP remaining in the assay mixture at the end of the incubation period after derivatisation of HPP with 2,4-dinitrophenylhydrazine (DNP) to form an amber-brown colored 2,4-dinitrophenylhydrazone under alkaline conditions. The assay was carried out at room temperature in Greiner F-bottom 96 well microplates. The assay mixture contained 50 mM Tris-HCl pH 7.8, 0.5 mM HPP, 10 mM ascorbate, 650 units of catalase and appropriate amounts of purified HPPD enzyme in a total assay volume of 100 μl. The reaction was started by the addition of enzyme. After an incubation time of 24 minutes, the reaction was stopped by the addition of 50 μl of a solution of 0.04% DNP dissolved in 3.8 N HCl. After a further 15-minute incubation period 100 μl of a 5 N KOH solution was added to the reaction mixture and the amount of unconsumed HPP was measured photometrically at 405 nm. Enzyme activity was calculated as the difference in E405 between assays lacking enzyme (negative control) and the enzyme containing assays (ΔE405=E405(negative control)−E405). Enzyme activity (nmol substrate consumed per min) was calculated from a calibration curve generated from HPP. pI50-values (the negative log value of the concentration of inhibitor necessary to inhibit 50% of the enzyme activity in molar concentration were determined from dose-response plots of HPPD activity versus inhibitor concentration tested (5.0×10^−6, 1.0×10^−5, 2.5×10^−5, 4.0×10^−5, 7.0×10^−5, 1.0×10^−4, 2.0×10^−4 and 5.0×10^−4M) using the 4 Parameter Logistic Model or Sigmoidal Dose-Response Model of the ID Business Solutions Ltd. XLfit software suite. The result “>5.6” means that the inhibition at the lowest inhibitor concentration tested was higher than 85% and the pI50-value could therefore not be precisely calculated within in the range of concentration of inhibitor tested. The result “<2.5” means that the inhibition at the highest inhibitor concentration tested was lower than 25% and the pI50-value could therefore not be precisely calculated within in the range of concentration of inhibitor tested. “n.d.” means not determined. • b) The HGD assay: With the HGD assay HPPD activity was measured at room temperature by adding appropriate amounts of HPPD to a solution of 200 mM Tris-HCl pH 7.6, 10 mM ascorbate, 20 μM FeSO4, 650 units of catalase, 8 μg HGA dioxygenase (HGA: homogentisate) and 600 μM HPP in a total volume of 1 ml. Initial reaction rates in the absence or presence of inhibitors were determined from the increase in absorbance at 318 nm due to the formation of maleylacetoacetate (ε318=11,900 M−1 cm-1). pI50-values (the negative log value of the concentration of inhibitor necessary to inhibit 50% of the enzyme activity in molar concentration were determined from dose-response plots of HPPD activity versus inhibitor concentration tested using the 4 Parameter Logistic Model or Sigmoidal Dose-Response Model of the ID Business Solutions Ltd. XLfit software suite. Due to the UV absorption of the HPPD inhibitors tested, inhibitor concentrations >100 μM could not be tested. The result “<4” means that the inhibition at 100 μM inhibitor concentration was lower than 25% and the pI50-value could therefore not be precisely calculated within in the range of concentration of inhibitor tested. “n.d.” means not determined. The HGD assay allowed to continuously follow HPPD-catalyzed HGA formation over time was therefore used to determine the inhibition type of the HPPD inhibitors tested. […] When in the presence of an inhibitor the HPPD activity was inhibited but the inhibition was found not to […] in a time-dependent manner, the inhibitor was called reversible (abbreviation “rev”). […]

[2] = tested on: Pseudomonas fluorescens HPPD protein; assay: HGD assay: HPPD activity coupled to HGA dioxygenase, pI50 and type of inhibition (time-course); type: biochemical; conditions: for pI50-values of Cmpd. 2: assay not given, follows the time-course analysis (HGD assay); for tolerance (pI50) Cmpd. 2: inhibitor Cmpd. 2, HGD assay
Protocol: as §1, §2

B1: K258: PfHPPD variant P215N, E335P, G336F, A340E (protein)
chain: MADLYENPMGLMGFEFIEFASPTPGTLEPIFEIMGFTKVATHRSKNVHLYRQGEINLILNNEPNSIASYFAAEHGPSVCGMAFRVKDSQKAYNRALELGAQPIHIDTGPMELNLPAIKGIGGAPLYLIDRFGEGSSIYDIDFVYLEGVERNPVGAGLKVIDHLTHNVYRGRMVYWANFYEKLFNFREARYFDIKGEYTGLTSKAMSAPDGMIRINLNEESSKGAGQIEEFLMQFNGEGIQHVAFLTDDLVKTWDALKKIGMRFMTAPPDTYYEMLEGRLPDHGEPVDQLQARGILLDGSSVEGDKRLLLQIFSETLMGPVFFEFIQRKGDDGFGPFNFKELFESIERDQVRRGVLTAD
modifications: HPPD variant - K258
notes: PfHPPD variant P215N, E335P, G336F, A340E
With B1 as the molecule, how does the “Activity DeltaE/24 min μg Protein” value [1] read?
The value was 0.15 DeltaE/24 min μg Protein.

And the “tolerance (pI50) Cmpd. 2” value [1]?
The value was 5.4.

And the “tolerance (pI50) DKN” value [1]?
Its value is under 2.5.

And the “tolerance (pI50) MST” value [1]?
The value was 3.4.

And the “tolerance (pI50) TBT” value [1]?
The value was 4.4.

What about the “mechanism of inhibition by Cmpd. 2, time-course of inhibition” value (“mechanism of inhibition” for short) [2] of the same molecule?
The value was “fully reversible inhibitor”.

B2: K363: PfHPPD variant Q226H, E335P, G336F, A340E (protein)
chain: MADLYENPMGLMGFEFIEFASPTPGTLEPIFEIMGFTKVATHRSKNVHLYRQGEINLILNNEPNSIASYFAAEHGPSVCGMAFRVKDSQKAYNRALELGAQPIHIDTGPMELNLPAIKGIGGAPLYLIDRFGEGSSIYDIDFVYLEGVERNPVGAGLKVIDHLTHNVYRGRMVYWANFYEKLFNFREARYFDIKGEYTGLTSKAMSAPDGMIRIPLNEESSKGAGHIEEFLMQFNGEGIQHVAFLTDDLVKTWDALKKIGMRFMTAPPDTYYEMLEGRLPDHGEPVDQLQARGILLDGSSVEGDKRLLLQIFSETLMGPVFFEFIQRKGDDGFGPFNFKELFESIERDQVRRGVLTAD
modifications: HPPD variant - K363
notes: PfHPPD variant Q226H, E335P, G336F, A340E
With B2 as the molecule, how does the “Activity DeltaE/24 min μg Protein” value [1] read?
Its value is 0.20 DeltaE/24 min μg Protein.

And the “tolerance (pI50) Cmpd. 2” value [1]?
Its value is 5.4.

What about the “tolerance (pI50) DKN” value [1] of the same molecule?
Its value is 3.8.

What about the “tolerance (pI50) MST” value [1] of the same molecule?
The value was 4.3.

And the “tolerance (pI50) TBT” value [1]?
The value was 5.5.

What about the “mechanism of inhibition” value [2] of the same molecule?
The value was “fully reversible inhibitor”.

B3: K325: PfHPPD variant A188G, R189C, P215N, E335P, G336F, A340E (protein)
chain: MADLYENPMGLMGFEFIEFASPTPGTLEPIFEIMGFTKVATHRSKNVHLYRQGEINLILNNEPNSIASYFAAEHGPSVCGMAFRVKDSQKAYNRALELGAQPIHIDTGPMELNLPAIKGIGGAPLYLIDRFGEGSSIYDIDFVYLEGVERNPVGAGLKVIDHLTHNVYRGRMVYWANFYEKLFNFREGCYFDIKGEYTGLTSKAMSAPDGMIRINLNEESSKGAGQIEEFLMQFNGEGIQHVAFLTDDLVKTWDALKKIGMRFMTAPPDTYYEMLEGRLPDHGEPVDQLQARGILLDGSSVEGDKRLLLQIFSETLMGPVFFEFIQRKGDDGFGPFNFKELFESIERDQVRRGVLTAD
modifications: HPPD variant - K325
notes: PfHPPD variant A188G, R189C, P215N, E335P, G336F, A340E
With B3 as the molecule, how does the “Activity DeltaE/24 min μg Protein” value [1] read?
Its value is 0.41 DeltaE/24 min μg Protein.

What about the “tolerance (pI50) Cmpd. 2” value [1] of the same molecule?
The value was 5.6.

And the “tolerance (pI50) DKN” value [1]?
The value was under 2.5.

And the “tolerance (pI50) MST” value [1]?
The value was 3.6.

What about the “tolerance (pI50) TBT” value [1] of the same molecule?
The value was 4.6.

And the “mechanism of inhibition” value [2]?
Its value is “fully reversible inhibitor”.

And the “pI50-values of Cmpd. 2” value [2]?
Its value is 5.5.

B4: K250: PfHPPD variant A188G, R189C, P215L, E335P, G336F, A340E (protein)
chain: MADLYENPMGLMGFEFIEFASPTPGTLEPIFEIMGFTKVATHRSKNVHLYRQGEINLILNNEPNSIASYFAAEHGPSVCGMAFRVKDSQKAYNRALELGAQPIHIDTGPMELNLPAIKGIGGAPLYLIDRFGEGSSIYDIDFVYLEGVERNPVGAGLKVIDHLTHNVYRGRMVYWANFYEKLFNFREGCYFDIKGEYTGLTSKAMSAPDGMIRILLNEESSKGAGQIEEFLMQFNGEGIQHVAFLTDDLVKTWDALKKIGMRFMTAPPDTYYEMLEGRLPDHGEPVDQLQARGILLDGSSVEGDKRLLLQIFSETLMGPVFFEFIQRKGDDGFGPFNFKELFESIERDQVRRGVLTAD
modifications: HPPD variant - K250
notes: PfHPPD variant A188G, R189C, P215L, E335P, G336F, A340E
For B4, which “Activity DeltaE/24 min μg Protein” value [1] is on record?
The value was 0.07 DeltaE/24 min μg Protein.

What about the “tolerance (pI50) Cmpd. 2” value [1] of the same molecule?
Its value is 4.6.

And the “tolerance (pI50) DKN” value [1]?
Its value is under 2.5.

And the “tolerance (pI50) MST” value [1]?
Its value is 3.0.

And the “tolerance (pI50) TBT” value [1]?
Its value is 3.8.

And the “mechanism of inhibition” value [2]?
The value was “fully reversible inhibitor”.

What about the “pI50-values of Cmpd. 2” value [2] of the same molecule?
The value was under 4.

B5: K300: PfHPPD variant P215L, E335P, G336F, A340G (protein)
chain: MADLYENPMGLMGFEFIEFASPTPGTLEPIFEIMGFTKVATHRSKNVHLYRQGEINLILNNEPNSIASYFAAEHGPSVCGMAFRVKDSQKAYNRALELGAQPIHIDTGPMELNLPAIKGIGGAPLYLIDRFGEGSSIYDIDFVYLEGVERNPVGAGLKVIDHLTHNVYRGRMVYWANFYEKLFNFREARYFDIKGEYTGLTSKAMSAPDGMIRILLNEESSKGAGQIEEFLMQFNGEGIQHVAFLTDDLVKTWDALKKIGMRFMTAPPDTYYEMLEGRLPDHGEPVDQLQARGILLDGSSVEGDKRLLLQIFSETLMGPVFFEFIQRKGDDGFGPFNFKGLFESIERDQVRRGVLTAD
modifications: HPPD variant - K300
notes: PfHPPD variant P215L, E335P, G336F, A340G
With B5 as the molecule, how does the “Activity DeltaE/24 min μg Protein” value [1] read?
The value was 0.01 DeltaE/24 min μg Protein.

And the “tolerance (pI50) Cmpd. 2” value [1]?
Its value is 3.8.

What about the “tolerance (pI50) DKN” value [1] of the same molecule?
The value was under 2.5.

What about the “tolerance (pI50) MST” value [1] of the same molecule?
The value was under 2.5.

What about the “tolerance (pI50) TBT” value [1] of the same molecule?
Its value is 3.1.

And the “mechanism of inhibition” value [2]?
Its value is “fully reversible inhibitor”.

What about the “tolerance (pI50) Cmpd. 2” value [2] of the same molecule?
Its value is 4.3.

B6: K306: PfHPPD variant P215L, Q226H, E335P, G336F, A340E (protein)
chain: MADLYENPMGLMGFEFIEFASPTPGTLEPIFEIMGFTKVATHRSKNVHLYRQGEINLILNNEPNSIASYFAAEHGPSVCGMAFRVKDSQKAYNRALELGAQPIHIDTGPMELNLPAIKGIGGAPLYLIDRFGEGSSIYDIDFVYLEGVERNPVGAGLKVIDHLTHNVYRGRMVYWANFYEKLFNFREARYFDIKGEYTGLTSKAMSAPDGMIRILLNEESSKGAGHIEEFLMQFNGEGIQHVAFLTDDLVKTWDALKKIGMRFMTAPPDTYYEMLEGRLPDHGEPVDQLQARGILLDGSSVEGDKRLLLQIFSETLMGPVFFEFIQRKGDDGFGPFNFKELFESIERDQVRRGVLTAD
modifications: HPPD variant - K306
notes: PfHPPD variant P215L, Q226H, E335P, G336F, A340E
With B6 as the molecule, how does the “Activity DeltaE/24 min μg Protein” value [1] read?
Its value is 0.01 DeltaE/24 min μg Protein.

And the “tolerance (pI50) Cmpd. 2” value [1]?
The value was 5.1.

What about the “tolerance (pI50) DKN” value [1] of the same molecule?
The value was under 2.5.

And the “tolerance (pI50) MST” value [1]?
The value was 3.7.

And the “tolerance (pI50) TBT” value [1]?
Its value is 4.8.

What about the “mechanism of inhibition” value [2] of the same molecule?
The value was “fully reversible inhibitor”.

And the “tolerance (pI50) Cmpd. 2” value [2]?
Its value is 4.9.
